{"source": "paper PMC11500415", "about": "“Chemical inhibition of stomatal differentiation by perturbation of the master-regulatory bHLH heterodimer via an ACT-Like domain” (Nature Communications, 2024)", "molecules": {"B1": {"name": "MUTE, recombinant full-length protein (1-202), as used in ITC (natural protein, A. thaliana, UniProt Q9M8K6 1-202, looked up)", "chain": "MSHIAVERNRRRQMNEHLKSLRSLTPCFYIKRGDQASIIGGVIEFIKELQQLVQVLESKKRRKTLNRPSFPYDHQTIEPSSLGAATTRVPFSRIENVMTTSTFKEVGACCNSPHANVEAKISGSNVVLRVVSRRIVGQLVKIISVLEKLSFQVLHLNISSMEETVLYFFVVKIGLECHLSLEELTLEVQKSFVSDEVIVSTN", "notes": "called full-length in the results; source: E. coli BL21, purified (glutathione resin, thrombin digestion, Superdex-200); not shown: GST, N-terminal, cleaved"}, "B2": {"name": "SCREAM (SCRM), recombinant full-length protein (1-494) (natural protein, A. thaliana, UniProt Q9LSE2 1-494, looked up)", "chain": "MGLDGNNGGGVWLNGGGGEREENEEGSWGRNQEDGSSQFKPMLEGDWFSSNQPHPQDLQMLQNQPDFRYFGGFPFNPNDNLLLQHSIDSSSSCSPSQAFSLDPSQQNQFLSTNNNKGCLLNVPSSANPFDNAFEFGSESGFLNQIHAPISMGFGSLTQLGNRDLSSVPDFLSARSLLAPESNNNNTMLCGGFTAPLELEGFGSPANGGFVGNRAKVLKPLEVLASSGAQPTLFQKRAAMRQSSGSKMGNSESSGMRRFSDDGDMDETGIEVSGLNYESDEINESGKAAESVQIGGGGKGKKKGMPAKNLMAERRRRKKLNDRLYMLRSVVPKISKMDRASILGDAIDYLKELLQRINDLHNELESTPPGSLPPTSSSFHPLTPTPQTLSCRVKEELCPSSLPSPKGQQARVEVRLREGRAVNIHMFCGRRPGLLLATMKALDNLGLDVQQAVISCFNGFALDVFRAEQCQEGQEILPDQIKAVLFDTAGYAGMI", "notes": "SCRM (ICE1), A. thaliana, residues 1-494; called full-length in the results; The methods describe thrombin removal of GST for all recombinant proteins; For the BLI runs of SCRM with MUTE one partner must have kept GST (anti-GST probes); also called ICE1; source: E. coli BL21, purified (glutathione resin, thrombin digestion, Superdex-200); not shown: GST, N-terminal, cleaved"}}, "key": {"SCRM-FAMA heterodimer": {"target": "T1, SCRM-FAMA heterodimer (Arabidopsis thaliana, UniProt Q56YJ8)", "T1 construct": "truncated SPCH and FAMA proteins lacking their N-terminal domain were used in yeast; expressed in transfected cells; host or cells: yeast strain AH109", "T1 sequence (Q56YJ8 190-414, one chain of several)": "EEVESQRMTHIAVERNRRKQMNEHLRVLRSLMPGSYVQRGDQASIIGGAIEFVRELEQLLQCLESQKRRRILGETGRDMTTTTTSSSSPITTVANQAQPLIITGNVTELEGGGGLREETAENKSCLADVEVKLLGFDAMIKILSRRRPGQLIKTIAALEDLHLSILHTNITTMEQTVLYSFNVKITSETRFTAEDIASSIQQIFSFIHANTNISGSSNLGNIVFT", "assay": "Y2H growth and quantitative α-galactosidase assay", "assay_type": "cell-based", "details": "50 μM; 1 mM 3-AT; N-terminally truncated FAMA", "procedure": "(§1) Y2H assays were performed using the Matchmaker^TM Two-Hybrid System (Clontech). Bait (pGBKT7) and prey (pGADT7) constructs were co-transformed into the yeast strain AH109 using Frozen-EZ Yeast Transformation II Kit (Zymo Research, T2001). The resulting transformants were spotted on SD ( − Leu, −Trp) and SD ( − Trp, −Leu, −His) selection media containing different concentrations of 3-amino-1,2,4-triazole (Sigma, A8056) as previously reported. Quantitative α-galactosidase assay was also performed according to manufactural instruction (Clontech). Briefly, the transformants were incubated in 2 ml SD medium with 0, 10, 50 100 μM Stomidazolone (3) or SIM3* (7) with rotary shake (220 rpm) at 30 °C overnight. The cultured media containing yeast were transferred to microtubes and centrifuged to obtain the supernatant. The colorimetric assay was performed by incubating 8 μL of supernatant with 24 μL Assay Buffer that contains 0.5 M sodium acetate (pH 4.5) (Nakalai tesque, 31137-25): 100 mM p-nitrophenyl α-D-Galactopyranoside Solution (Sigma N0877) = 2:1 (v/v) at 30 °C for 60 min, then terminated by adding 960 μL 1X Stop Solution (0.1 M sodium carbonate, Fujifilm Wako 195-01582). After OD410 was recorded, α-galactosidase units were calculated according to the protocol (Clontech, P3024-1)."}, "SCRM-SPCH heterodimer": {"target": "T2, SCRM-SPCH heterodimer (Arabidopsis thaliana, UniProt Q700C7)", "T2 construct": "truncated SPCH and FAMA proteins lacking their N-terminal domain were used in yeast; expressed in transfected cells; host or cells: yeast strain AH109", "T2 sequence (Q700C7 98-364 limits assumed)": "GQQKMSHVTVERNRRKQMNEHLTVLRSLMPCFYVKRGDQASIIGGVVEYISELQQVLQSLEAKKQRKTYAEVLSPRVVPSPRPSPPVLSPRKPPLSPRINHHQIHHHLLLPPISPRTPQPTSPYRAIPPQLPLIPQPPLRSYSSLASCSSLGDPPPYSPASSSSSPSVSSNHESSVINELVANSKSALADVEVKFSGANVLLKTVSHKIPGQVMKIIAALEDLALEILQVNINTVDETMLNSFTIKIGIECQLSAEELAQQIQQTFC", "assay": "Y2H growth and quantitative α-galactosidase assay", "assay_type": "cell-based", "details": "50 μM; 1 mM 3-AT; N-terminally truncated SPCH", "procedure": "as §1"}, "SCRM-MUTE heterodimer": {"target": "T3, SCRM-MUTE heterodimer (Arabidopsis thaliana, UniProt Q9M8K6)", "T3 construct": "expressed in transfected cells; host or cells: yeast strain AH109", "T3 sequence (Q9M8K6 1-202)": "B1 chain", "assay": "Y2H growth and quantitative α-galactosidase assay", "assay_type": "cell-based", "details": "50 μM; 1 mM 3-AT", "procedure": "as §1"}, "stomatal movement": {"system": "stomatal movement", "parameters": "method as in PMID 35042960", "details": "previous chemical screens and SAR studies; cited from earlier work"}, "[1]": {"system": "Arabidopsis wild-type (WT) seedlings", "assay": "Stomatal development bioassay, seedlings in liquid culture", "assay_type": "in vivo", "details": "50 μM; WT seedlings, liquid culture", "procedure": "Arabidopsis accession Columbia (Col-0) was used as wild-type. […] Their genotype and transcript reduction were confirmed. The presence of transgenes/mutant alleles were confirmed by genotyping. For liquid culture with Stomidazolone (AYSJ929, compound 3), the analogs (AYSJ1059 (compound 5) and AYSJ1061 (compound 6)), degraded compound lzx103 (compound 4), and SIM3* (compound 7), all compounds were dissolved in dimethyl sulfoxide (DMSO, Molecular biology grade, Fujifilm Wako, Japan 046-21981), Col-0 seeds were sown in 96-well plates (TL5003; True Line) containing 95 μL of 1/2 MS media containing 0.5% sucrose with rotary shaking at 140 rpm under continuous light at 22 °C. Five μL of compounds were dissolved in DMSO at 10 mM and diluted with liquid 1/2 MS media to 1 mM and added on 1-day-old seedlings (final concentration, 50 μM). Seedlings were incubated for 8 days, and at day 9 seedling abaxial cotyledons were observed through confocal microscopy. For liquid culture of scrm-D_S343 and scrm-D_S423, 1/2 MS liquid media without sucrose was used. For the solid culture, 0, 20, 50 or 100 μM Stomidazolone were solidified with low-melting agarose (5805S, PrimeGelTM Agarose LMT 1-20 K, TAKARA Bio). Briefly, 1/2 MS salt, 0.5% sucrose, and 0.8% low melting agarose were mixed in water and autoclaved. After cooling the medium at around 30 °C, Stomidazolone (500x, dissolved in DMSO) was added and poured into 90 mm petri dishes (Asnol Petri Dish JP φ90 x 15 mm, 3-1491-01, AS ONE). Col-0 seeds were sown on Stomidazolone-containing 1/2 MS agarose media and grown under continuous light for 9 days.\nFor confocal microscopy, cell peripheries of seedlings were visualized with propidium iodide (Sigma, P4170). Images were acquired using LSM800 or LSM700 (Zeiss) using a 20x lens. The GFP, YFP reporter and PI signals were detected with excitation at 488 nm and an emission filter of 410 to 546 nm, at 488 nm and an emission filter of 410 to 546 nm, and with excitation at 561 nm and 582–617 nm emission range, respectively. Raw data were collected with 1024 × 1024 pixel images. For qualitative image presentation, Adobe Photoshop CC was used to trim and uniformly adjust the contrast/brightness.\nFor quantitative analysis of the abaxial leaf epidermis, confocal images were taken on the days after germination as indicated in the Figure legends. Preparation of images was done as described previously[32],[70]. For counting epidermal cell types, stomatal density, stomatal precursor cells (meristemoids), total stomata-lineage cells (stomata and meristemoids) were calculated by counting cell types in an area of 0.4 mm^2 (0.63 mm × 0.63 mm) and plotted as per mm^2. A series of Z-stack confocal images was obtained to obtain images covering the epidermis and capturing GFP/YFP signal from the reporter lines. The area and the number of epidermal cells were quantified by using FIJI-ImageJ. Statistical analyses were performed using R ver. 4.0.2. Sample sizes (n) are indicated and defined in each legend. For the multiple sample comparison, 1-way ANOVA was performed followed by a post hoc Tukey HSD test. For the two-sample comparison, Student’s T-test was performed. Graphs were generated using R ggplot2 package. For all boxplots, each box represents IQR (interquartile range), in which top, middle line, and bottom indicating 75, 50, and 25 percentiles, respectively, and the bar representing maximum to minimal values. Each magenta dot represents jittered individual data point. The datapoints that go beyond the bar are outliers, which are indicated as black dots. If the data point is greater than Q3 + 1.5*IQR (above the third quartile is greater than 1.5 times of the interquartile range) or less than Q1 − 1.5*IQR, that data point is classified as outlier. The color of Boxplot graph was based on ColorBrewer.org. The value of n, the number of each experiment or samples, the means of error bars, and how statistical significance was defined are indicated in a relevant figure legend. […]"}, "[2]": {"target": "B2", "assay": "ITC; SCRM to MUTE in the presence of AYSJ1059 (5); Malvern PEAQ-ITC; PBS with 2% DMSO and 1 mM DTT; methods: 30 °C, pH 7.4; legend of Supplementary Table 2: pH 7.2, 25 °C", "details": "both partners purified"}, "[3]": {"target": "B2", "assay": "ITC; SCRM to MUTE in the presence of AYSJ1061 (6); Malvern PEAQ-ITC; PBS with 2% DMSO and 1 mM DTT; methods: 30 °C, pH 7.4; legend of Supplementary Table 2: pH 7.2, 25 °C", "details": "both partners purified"}, "[4]": {"target": "B1", "assay": "ITC; SCRM to MUTE in the presence of AYSJ1059 (5); Malvern PEAQ-ITC; PBS with 2% DMSO and 1 mM DTT; methods: 30 °C, pH 7.4; legend of Supplementary Table 2: pH 7.2, 25 °C", "details": "both partners purified"}, "[5]": {"target": "B1", "assay": "ITC; SCRM to MUTE, no compound; Malvern PEAQ-ITC; PBS with 2% DMSO and 1 mM DTT; methods: 30 °C, pH 7.4; legend of Supplementary Table 2: pH 7.2, 25 °C; means of two experiments", "details": "both partners purified"}, "[6]": {"target": "B1", "assay": "ITC; SCRM to MUTE pre-incubated with Stomidazolone (3); Malvern PEAQ-ITC; PBS with 2% DMSO and 1 mM DTT; methods: 30 °C, pH 7.4; legend of Supplementary Table 2: pH 7.2, 25 °C", "details": "both partners purified"}, "[7]": {"target": "B1", "assay": "ITC; SCRM to MUTE in the presence of AYSJ1061 (6); Malvern PEAQ-ITC; PBS with 2% DMSO and 1 mM DTT; methods: 30 °C, pH 7.4; legend of Supplementary Table 2: pH 7.2, 25 °C", "details": "both partners purified"}}}
{"molecule": "Cc1nc(-c2ccccc2)c(NS(=O)(=O)c2ccccc2)o1", "note": "[SIM3*, reference compound]", "values": [{"measurement": "effect on association in Y2H growth assay", "setting": "SCRM-FAMA heterodimer", "result": "no effects"}, {"measurement": "effect on association in Y2H growth assay", "setting": "SCRM-SPCH heterodimer", "result": "no effects"}, {"measurement": "effect on association in Y2H growth assay", "setting": "SCRM-MUTE heterodimer", "result": "no effects"}, {"measurement": "effect on stomatal movement (in words)", "setting": "stomatal movement", "result": "inhibit stomatal movement"}, {"measurement": "effect on stomatal development (in words)", "setting": "[1]", "result": "no effects"}]}
{"molecule": "B1", "values": [{"measurement": "Kd", "setting": "[2]", "result": "9.6 ± 1.8", "unit": "nM"}, {"measurement": "Kd", "setting": "[3]", "result": "11.4 ± 2.1", "unit": "nM"}]}
{"molecule": "B2", "values": [{"measurement": "stoichiometry N", "setting": "[4]", "result": 1}, {"measurement": "stoichiometry N", "setting": "[5]", "result": 0.96}, {"measurement": "stoichiometry N", "setting": "[6]", "result": 0.91}, {"measurement": "stoichiometry N", "setting": "[7]", "result": 1.1}]}
